Source: US20260132200A1 (Regeneron, published 2026)
Where a chain is given by its changes, count along the chain named. Read-outs that look alike come from different tables or passages of the source.

T1: human CD3 expressed on cells (Jurkat, a CD3+ human T-cell line; human T cells) (human, UniProt P07766 23-126; P04234 22-100)
T1 chain 1: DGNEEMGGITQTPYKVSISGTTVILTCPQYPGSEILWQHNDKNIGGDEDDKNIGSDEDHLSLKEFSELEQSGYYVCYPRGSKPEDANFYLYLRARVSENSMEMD
T1 chain 2: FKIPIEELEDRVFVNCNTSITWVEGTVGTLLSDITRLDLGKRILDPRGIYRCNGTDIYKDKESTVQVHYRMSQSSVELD

B1: H2M2690N (antibody, mouse IgG2, V domains shown)
VH: EVQLVESGGGLVQPGRSLRLSCAASGFTFDDYTMHWVRQAPGKGLEWVSGISWNSGSIGYADSVKGRFTISRDNAKKSLYLQMNSLRAEDTALYYCAKDNSGYGHYYYGMDVWGQGTTVTVAS
VL: EIVMTQSPATLSVSPGERATLSCRASQSVSSNLAWYQQKPGQAPRLLIYGASTRATGIPARFSGSGSGTEFTLTISSLQSEDFAVYYCQHYINWPLTFGGGTKVEIK
B2: H1H5788P (antibody, V domains shown)
VH: B1 VH with K77N, Y94F, N100Q, A122S
VL: B1 VL with G57D, Y87H, H90Q, I92N
B3: H2M2691N (antibody, mouse IgG2, V domains shown)
VH: B1 VH
VL: B1 VL
B4: H1M2692N (antibody, mouse IgG1, V domains shown)
VH: EVQLVESGGGLVQPGGSLRLSCAASGFSFDDYTMHWVRQPPGKGLEWVSGISWNSGSIGYADSVKGRFTISRDNAKNSLYLQMNSLRAGDTALYYCAKDNSGYGYYYYYGMDVWGQGTTVTVSS
VL: B1 VL with H90Q, I92Y
B5: H2M2708N (antibody, mouse IgG2, V domains shown)
VH: QVQLVESGGGVVQPGRSLRLSCAASGFTFRSFGMHWVRQAPGRGLEWVAMIYFDGKNKYYADSVRGRFTISRDNSKNTLYLEMSSLRAEDTAVYFCARGPGYNWLDPWGQGTLVTVSS
VL: B1 VL with A19V, V29I, S31R, I58V, Y86F, Y87H, H90Q, I92N, W94R, K103E
B6: H2M2710N (antibody, V domains shown)
VH: B5 VH
VL: B1 VL with S31R, I58V, Y86F, Y87H, H90Q, I92N, W94R, K103E
B7: H2M2711N (antibody, V domains shown)
VH: B5 VH
VL: B1 VL with S31R, I58V, Y86F, Y87H, H90Q, I92N, W94R, K103E
B8: H2M2775N (antibody, mouse IgG2, V domains shown)
VH: B5 VH
VL: EIVMTQSPATLSVSPGERVILSCRASQSISRNLAWYQQKPGQAPRLLIYGATTRATGVPARFSGSGSGTEFTLTISSLQSEDFAVFYCQQYNNRPLTFGGGTEVEIK
B9: H2M2885N (antibody, mouse IgG2, V domains shown)
VH: B5 VH
VL: B8 VL
B10: H2M2886N (antibody, mouse IgG2, V domains shown)
VH: B5 VH
VL: B8 VL
B11: H2M2706N (antibody, mouse IgG2, V domains shown)
VH: B5 VH with F32Y, G33A, R43K, I51V, F53Y, K56N, K58Q, E82Q, S84N, E89D
VL: B1 VL with S31R, E70D, H90Q, I92N, E105V
B12: H2M2707N (antibody, mouse IgG2, V domains shown)
VH: B5 VH with A23I, F32Y, R43K, F53Y, K56N, E82Q, S84N, E89D
VL: B1 VL with H90Q, I92N, W94R
B13: H1M2712N (antibody, mouse IgG1, V domains shown)
VH: B1 VH with R16G, S25T, Y32F, A61V, K77N, H105Y, A122S
VL: B1 VL with Q27H, S31R, L33S, V85I, H90Q, I92N
B14: H2M2774N (antibody, mouse IgG2, V domains shown)
VH: B5 VH with A23V, F32Y, R43K, E46Q, F53Y, E82Q, S84N, V93M
VL: B1 VL with S28R, V29I, I58S, F83V, H90Q, Y91H, I92N
B15: H2M2777N (antibody, mouse IgG2, V domains shown)
VH: B5 VH with A23I, F32Y, R43K, F53Y, K56N, E82Q, S84N, E89D
VL: B1 VL with H90Q, I92N, W94R
B16: H2M2779N (antibody, V domains shown)
VH: B1 VH with R16G, S25T, Y32F, A61V, K77N, H105Y, A122S
VL: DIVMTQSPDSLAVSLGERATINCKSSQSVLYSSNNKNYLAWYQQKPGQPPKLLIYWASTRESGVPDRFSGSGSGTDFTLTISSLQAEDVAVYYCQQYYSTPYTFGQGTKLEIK
B17: H2M2862N (antibody, mouse IgG2, V domains shown)
VH: B5 VH with F32Y, R43K, F53Y, K56N, Y59K, E82Q, S84N, A88V
VL: B1 VL with S31R, G57D, T72I, T74N, V85L, H90Q, I92S, K103E
B18: H2M3540N (antibody, mouse IgG2, V domains shown)
VH: QVHLEESGGGVVQPGRSLRLSCSASGFTFSSYAMHWVRQAPGKGLEWVAVIWYDGTNKYYLDSVKGRFTISRDNSKNTLFLQMNSLRAEDTAVYYCARDRGSIITHWGQGTLVTVSS
VL: DIQMTQSPSSLSASIGDRVTITCRASQNISSYLNWYQQKPGKAPKLLIYAASSLQSGVPSRFSGSGSGTDFTLTISSLQPEDFATYYCQQTYSTPPITFGQGTRLEIK
B19: H2M3541N (antibody, mouse IgG2, V domains shown)
VH: EVQLVESGGGLVRPGRSLRLSCAASGFTFDDYTMHWVRQAPGKGLEWVSDISWNSGTIGYADSVKGRFTISRDNAKNSLYLQMNSLRPEDTALYYCAKDMSGYAHYYYYGMDVWGQGTTVTVSS
VL: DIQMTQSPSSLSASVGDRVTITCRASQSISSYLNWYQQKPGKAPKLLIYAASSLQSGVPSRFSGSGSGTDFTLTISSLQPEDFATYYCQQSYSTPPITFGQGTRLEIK
B20: H1M3542N (antibody, mouse IgG1, V domains shown)
VH: B19 VH with R13Q, A23V, T28P, D30A, T57S, I58K, P88T, L93F, Y107F
VL: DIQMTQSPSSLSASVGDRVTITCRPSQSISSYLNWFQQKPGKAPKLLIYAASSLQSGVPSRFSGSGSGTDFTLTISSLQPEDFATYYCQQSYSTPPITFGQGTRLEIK
B21: H2M3543N (antibody, mouse IgG2, V domains shown)
VH: B19 VH with R13Q, T57S, I70V, P88G, Y107G
VL: B18 VL with I15V, N28S, S30R, S31N, A43V, T91S, T94N
B22: H2M3547N (antibody, mouse IgG2, V domains shown)
VH: EAQLVESGGGLVQPGRSLRLSCTTSGFTFDDYTMHWVRQAPGKGLEWISDISWNGGTKGYADSVKGRFTISRDNAKNSLYLQMDSLRGEDTALYYCVKDKSGYGHFYFGLDVWGQGTTVTVSS
VL: DIQMTQSPSSLTASVGDRVTFTCRASQSISRHLSWYQQKPGKAPKLLIYAASSLESGVPSRFSGSGSGTDFTLTISSLHPEDFATYYCQQSYSNPPITFGQGTRLEIK
B23: H2M3548N (antibody, mouse IgG2, V domains shown)
VH: EVQLVESGGGLVQPGRSLRLSCAASGFKFADYAMHWVRQAPGKGLEWVSEISWNSGSIGYVDSVKGRFTISRDNAKNSLYLQMNSLRAEDTALYYCVKDKSGYGHYYIGMDVWGQGTTVIVSS
VL: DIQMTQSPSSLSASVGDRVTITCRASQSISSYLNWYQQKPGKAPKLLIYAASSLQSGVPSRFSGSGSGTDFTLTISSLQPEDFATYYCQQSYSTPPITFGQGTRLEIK
B24: H1M3549N (antibody, mouse IgG1, V domains shown)
VH: B19 VH with R13Q, A23V, T28P, D30A, T57S, P88T, Y107F
VL: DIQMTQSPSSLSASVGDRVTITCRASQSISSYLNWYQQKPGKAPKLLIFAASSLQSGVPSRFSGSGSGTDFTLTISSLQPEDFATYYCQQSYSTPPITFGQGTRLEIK
B25: H2M3563N (antibody, mouse IgG2, V domains shown)
VH: B19 VH with Q3H, R13Q, T57S, I70V, P88G, A104G, Y107G, Y108K
VL: B18 VL with I15V, N28S, S30R, A43V, S76N, E81D, T94N
B26: H1M3613N (antibody, mouse IgG1, V domains shown)
VH: B19 VH with R13Q, R19K, A23T, D30A, A40G, T57S, I58K, P88T, G110A, M111L
VL: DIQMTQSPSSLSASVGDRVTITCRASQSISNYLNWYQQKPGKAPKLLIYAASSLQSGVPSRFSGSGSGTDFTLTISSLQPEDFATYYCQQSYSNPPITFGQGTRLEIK
B27: H1H5752P (antibody, human IgG1, V domains shown)
VH: QVQLVESGGGVVQPGRSLRPSCAASGFSFRDYGMHWVRQAPGKGLEWMAHIWYNGKNKYYADSVKGRFTISRDNSKNTLYLQMNSLRPEDTAVYYCARDGVSARGTPFDYWGQGTLVTVSS
VL: ETTLTQSPAFMSAAPGDKVSISCIASQYIDDDVNWYQQKPGETAIFIIQEASTLVPGISPRFSGSGYGTHFTLTINNIDSEDAAFYFCLQHDNFPYTFGQGTKLEIK
B28: H1H5755B (antibody, human IgG1, V domains shown)
VH: EVQLVESGGGVVQPGRSLRLSCAASGFTFSNYGMHWVRQAPGKGLEWVTVILHDGSYKYYADSVKGRFTISRDNSKNTLHLQMNSLRTEDTAVYYCAKGPMFRGVPYNHYYGMDVWGQGTTVTVSS
VL: DIQMTQSPSSLSASVGDRVTITCRASQGIRNDLGWYQQKPGKAPKRLIYAASSLQSGVSSRFSGSGSGTEFTLTISSLQPEDFATYYCLQHNSYPYTFGQGTKVEIKR
B29: H1H5757B (antibody, human IgG1, V domains shown)
VH: B28 VH with N31S, Y57N, K58R, Y60S, H80Y, S85I, T88V, A97T, P100A, F102V
VL: B28 VL with S53I, S59P, V104L
B30: H1H5758B (antibody, human IgG1, V domains shown)
VH: B28 VH with N31S, Y57N, K58R, H80Y, S85I, T88A, A97T, P100A, F102V
VL: B28 VL with Q3V, S53N, S59P, V104L

What was measured:
[1] = biological target: T1, human CD3 expressed on cells (Jurkat, a …); assay: cell-based or functional assay
[2] = biological target: T1, human CD3 expressed on cells (Jurkat, a …); assay: cell-based or functional assay

| Binder | U937 Cytotoxicity Human T-cells [M] (EC50) [1] | U937 Cytotoxicity Human T-cells [M] (EC50) [2] |
| --- | --- | --- |
| B1 | 2.79e-11 |  |
| B2 |  | 1.54e-11 |
| B3 | 2.34e-11 |  |
| B4 | 3.59e-10 |  |
| B5 | 3.27e-12 |  |
| B6 | 3.97e-12 |  |
| B7 | 3.66e-12 |  |
| B8 | 3.38e-12 |  |
| B9 | 3.71e-12 |  |
| B10 | 8.06e-12 |  |
| B11 | 7.91e-12 |  |
| B12 | 7.21e-12 |  |
| B13 | 3.14e-10 |  |
| B14 | 2.46e-12 |  |
| B15 | 4.86e-12 |  |
| B16 | 6.75e-10 |  |
| B17 | 7.66e-12 |  |
| B18 | 1.25e-11 |  |
| B19 | 5.39e-11 |  |
| B20 | 2.92e-11 |  |
| B21 | 1.31e-11 |  |
| B22 | 3.17e-11 |  |
| B23 | 5.5e-12 |  |
| B24 | 1.07e-10 |  |
| B25 | 4.05e-11 |  |
| B26 | 8.66e-10 |  |
| B27 |  | 1.85e-11 |
| B28 |  | 5.16e-11 |
| B29 |  | 9.65e-11 |
| B30 |  | 8.86e-08 |
